Consider 1 protein from patent US20050170442.

The target of this data set is T1, Biotin-labeled fluorescent peptide CPRPFSVPP(S*)PDK-(5-FAM) (not fully specified).
T1 chain: CPRPFSVPPSPDK

B1: GSK3α, rHuman (protein)
chain: MSGGGPSGGGPGGSGRARTSSFAEPGGGGGGGGGGPGGSASGPGGTGGGKASVGAMGGGVGASSSGGGPGGSGGGGSGGPGAGTSFPPPGVKLGRDSGKVTTVVATLGQGPERSQEVAYTDIKVIGNGSFGVVYQARLAETRELVAIKKVLQDKRFKNRELQIMRKLDHCNIVRLRYFFYSSGEKKDELYLNLVLEYVPETVYRVARHFTKAKLTIPILYVKVYMYQLFRSLAYIHSQGVCHRDIKPQNLLVDPDTAVLKLCDFGSAKQLVRGEPNVSYICSRYYRAPELIFGATDYTSSIDVWSAGCVLAELLLGQPIFPGDSGVDQLVEIIKVLGTPTREQIREMNPNYTEFKFPQIKAHPWTKVFKSRTPPEAIALCSSLLEYTPSSRLSPLEACAHSFFDELRCLGTQLPNNRPLPPLFNFSAGELSIQPSLNAILIPPHLRSPAGTTTLTPSSQALTETPTSSDWQSTDATPTLTNSS
On to B1, for which the “TR-FRET ratio (Em520/Em495) after kinase reaction, chymotrypsin development and Tb-streptavidin detection” value was “with GSK3a, a higher TR-FRET ratio than without GSK3α is seen”; the “TR-FRET ratio (Em520/Em495) in the chymotrypsin titration” value is listed as “with GSK3α a higher TR-FRET ratio than without GSK3α is seen”; the “amount of enzyme/well needed for roughly 50% maximal signal at 10 µM ATP/well (TR-FRET enzyme titration)” value is reported as 0.05 µg/ml for GSK3α.
